Tests used:
[1] = target: T1, human CD33 (full length ECD), recombinant (human, UniProt P20138 18-259); assay: SPR (Biacore 8K), vHH-mono-Fc captured by anti-human Fc, antigen in solution
T1 construct: extracellular domain; Tag or HSA fusion partner unknown; also called hu CD33 (FL ECD); hCD33-FL ECD
Description: (§1) The binding affinity of anti-CD33 antibodies and Llama vHHs to the recombinant human CD33 (FL ECD or IgC2 domain) was determined by surface plasmon resonance (SPR) using Biacore 8K instrument. […] The association and dissociation were monitored for 2 and 30 minutes, respectively, using a flow rate of 50 μL/min. Raw binding data was referenced by subtracting the analyte binding signals from blanks and analyzed using a 1:1 Langmuir binding model using the Biacore software to obtain the kinetics which were used to calculate the binding affinity.
(§2) The anti-CD33 Llama vHHs on a mono-Fc backbone were captured using an anti-human Fc antibody and the antigens were injected in solution.

[2] = target: T2, human CD33 IgC2 domain, recombinant (human, UniProt P20138 136-259); assay: as above
T2 construct: domain: IgC2; also called hu CD33 (IgC2); hCD33-IgC2
Description: as §1, §2

[3] = target: T1, human CD33 (full length ECD), …; assay: SPR (Biacore 8K), antibody captured by anti-human Fc, antigen in solution
Description: (§3) Affinities (KD) for the interaction of anti-CD33 antibodies human CD33 (full length ECD and IgC2 domain) were obtained by SPR. The anti-CD33 antibodies were captured using an anti-human Fc antibody and the antigens were injected in solution.
as §1

[4] = target: T2, human CD33 IgC2 domain, recombinant; assay: as above
Description: as §3, §1

[5] = target: T3, human CD33 on cells (MOLM-13, Kasumi-1, OCI-AML-3, Kasumi-3) (human, UniProt P20138 18-364); assay: flow cytometry on OCI-AML-3 cells, 4 °C, serial dilutions of the antibody
T3 construct: whole, on cells; also called CD33 expressing cells; CD33+ cell lines
T3 sequence (P20138 18-364): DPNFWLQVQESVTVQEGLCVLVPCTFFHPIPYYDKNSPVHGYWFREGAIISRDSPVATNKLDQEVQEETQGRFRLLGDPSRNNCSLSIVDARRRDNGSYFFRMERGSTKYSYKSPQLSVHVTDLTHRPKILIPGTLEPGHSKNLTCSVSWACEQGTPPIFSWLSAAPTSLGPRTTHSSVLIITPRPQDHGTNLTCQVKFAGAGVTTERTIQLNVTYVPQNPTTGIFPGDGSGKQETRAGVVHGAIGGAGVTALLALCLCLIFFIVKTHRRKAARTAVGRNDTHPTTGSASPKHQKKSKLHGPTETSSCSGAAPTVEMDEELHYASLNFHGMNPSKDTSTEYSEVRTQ
Description: (§4) Cells were harvested, washed once with PBS and then stained with the fixable viability dye at room temperature for 30 min. Following incubation, cells were washed twice with FACS buffer (PBS+2% FBS). Cells were then used for binding assay with test antibodies. 100,000 cells were stained with the test antibodies in a 100 ul staining volume. Antibodies for staining were diluted in FACS buffer and incubated with the cells for 40 mins on ice, followed by washing 2X with FACS buffer. Test antibodies were then detected using the PE conjugated Goat F(ab′)2 Anti-Human IgG-Fc (ab98596; Abcam) for 40 minutes on ice. Following washing, data was acquired on the Novocyte flow cytometer (ACEA). Cells were gated on FSC/SSC, followed by live cell gating and doublet discrimination. Data was analyzed using Flow Jo (BD).
(§5) Median fluorescence intensity values were used to plot a 4-parameter non-linear regression analysis curve after subtracting the MFI of the secondary only sample.
(§6) The binding EC₅₀ values of CD33 antibodies to high (MOLM-13), medium (Kasumi-1) and low (OCI-AML-3) cell lines were assayed. Binding was carried out at 4° C. with serial dilutions of the antibody.

[6] = target: T3, human CD33 on cells (MOLM-13, Kasumi-1, …); assay: flow cytometry on MOLM-13 cells, 4 °C, serial dilutions of the antibody
Description: as §4, §5, §6

[7] = target: T3, human CD33 on cells (MOLM-13, Kasumi-1, …); assay: flow cytometry on MOLM-13 cells, 4 °C, detection with PE goat F(ab')2 anti-human IgG-Fc

T2 sequence (P20138 136-259 limits assumed): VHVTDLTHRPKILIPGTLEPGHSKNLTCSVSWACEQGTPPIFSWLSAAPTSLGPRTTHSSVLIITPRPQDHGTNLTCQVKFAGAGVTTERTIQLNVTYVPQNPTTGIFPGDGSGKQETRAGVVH
T1 sequence (P20138 18-259): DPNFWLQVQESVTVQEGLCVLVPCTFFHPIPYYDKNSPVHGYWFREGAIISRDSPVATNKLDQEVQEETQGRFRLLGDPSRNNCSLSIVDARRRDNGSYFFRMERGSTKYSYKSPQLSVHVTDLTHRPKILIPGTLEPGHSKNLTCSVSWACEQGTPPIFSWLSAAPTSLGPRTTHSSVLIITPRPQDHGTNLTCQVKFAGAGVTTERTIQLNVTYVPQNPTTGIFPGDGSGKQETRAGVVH

| Binder | Kd [1] [nM] | Kd [2] [nM] | EC50 [5] [nM] | binding result [7] | also measured |
| --- | --- | --- | --- | --- | --- |
| C33B1517 (antibody, V domains shown) VH: QVQLQESGPGLVKPSETLSLTCSVSGASIRNYYWSWIRQTAGKGLEWLGHIYSTGNIHYNPSLKSRVTMSVDTSNNQFSLKLRSVTAADTAVYYCARDNGAALFDYWGQGTLVTVSS VL: not shown | – | – | 1.4 | – | Kd [3]: 4.44 nM; binding result [4]: no binding (tested: 40 nM-1.6 nM CD33 antigen); EC50 [6]: 10.6 nM |
| C33B1788 (llama vHH on mono-Fc backbone) (Fc fusion, not shown: mono-Fc backbone) QVQLVESGGGLVQPGGSLRLSCAVFGFSLSDYAIGWFRQAPGKEREKVSCISESDGRTYLSDSVKSRFTISRDNGKNTVYLQMNNLKPDDTGVYYCATVDQAISESSYHCEKGFGSWGQGTQVTVSS | 0.707 | 4.34 | – | – | – |
| C33B1478 (antibody, V domains shown, In the FIG. 3 assay the antibody carried Alexa Fluor 647 (p-1610); the site is not given and the letters do not carry it., also called sCD33B1478) VH: EVQLVESGGGLVQPGGSLKVSCEASGFTFSVSAIHWVRQASGKGLEWIGRIRSKGNSYATAYDVSVKGRFTISRDDSKNTAYLQMDSLKTEDTAVYYCTRHNDKWNYYGLDVWGQGTTVTVSS VL: DIVMTQSPLSLPVTPGEPASISCKSSQSLLFSNGYKFLDWYLQRPGQSPQLLIYLGSYRASGVPDRFSGSGSGTDFTLKISRVEAEDVGLYYCMQALQTPPTFGGGTKVEIK | – | – | – | binds | – |
| C33B1476 (antibody, V domains shown, also called sCD33B1476) VH: EVQLVESGGGLVQPGGSLKVSCEASGFTFSVSAIHWVRQASGKGLEWIGRIRSKGNSYATAYNVSVKGRFTISRDDSKNTAYLQMDSLKTEDTAVYYCTRHNDKWNYYGLDVWGQGTTVTVSS VL: DIVMTQSPLSLPVTPGEPASISCKSSQSLLFSNGYKFLDWYLQRPGQSPQLLIYLGSYRASGVPDRFSGSGSGTDFTLKISRVEAEDVGLYYCMQALQTPPTFGGGTKVEIK | – | – | 0.8 | – | – |
| C33B1474 (antibody, V domains shown) VH: QVQLVESGGGLVQPGGSLRLSCAASGFTFSSFGMSWVRQAPGKGLEWVANIKRDGSEKYYVDSVKGRFTISRDNAKNSLFLQMSSLRAEDTAVYYCVRDYGYFDFWGQGTLVTVSS VL: DIQMTQSPSSLSASVGDRVTITCQASQAISNYLNWYQQKPGKAPKLLIYDASNLETGVPSRFSGSGSGTDFTFTISSLQPEDFSTYFCQHYDNLPYTFGQGTKLEIK | – | – | 1.26 | – | Kd [3]: 2.47 nM; Kd [4]: 3.99 nM; EC50 [6]: 78.4 nM |

Second part, led by results:

| Kd [1] [nM] | Kd [2] [nM] | EC50 [5] [nM] | binding result [7] | Binder | also measured |
| --- | --- | --- | --- | --- | --- |
| 2.21 | 0.0559 | – | – | C33B1781 (llama vHH on mono-Fc backbone) (Fc fusion, not shown: mono-Fc backbone) EVQVVESGGGLVQGGGSLRLSCAASGSIFSINAMGWYHQAPGKQRELVARITGGGATDYVDSVKGRFTISLDSAKSTVYLQMNSLKPEDTAVYHCYADLVTRVGSDLLYDDYWGQGTQVTVSS | – |
| 0.67 | 3.03 | – | – | C33B1789 (llama vHH on mono-Fc backbone) (Fc fusion, not shown: mono-Fc backbone) QVQLVESGGGLVQAGGSLRLSCAVFGFSLSDYAIGWFRQAPGKEREKVSCISESDGRTYLSDSVKSRFTISRDNGKNTVYLQMNNLKPDDTGVYYCATVDQAISESSYHCEKGFGSWGQGTQVTVSS | – |
| – | – | – | binds | C33B1495 (antibody, V domains shown, also called sCD33B1495) VH: EVQLVESGGGLVQPGGSLRLSCTASGFTFSSYWMSWVRQAPGKGLDWVANIKRDGSEKHYVDSVKGRFTISRDNAKNSLYLQMNSLRAEDSAVYYCTRDYGYFDYWGQGTLVTVSS VL: DIQLTQSPSFLSASVGDRVTITCRASQGISSYLAWYQQKPGKAPKVLIYAASTLQSGVPSRFSGSGSGTEFTLTISSLQPEDFATYFCQQLNSYPVTFGGGTKVEIK | – |
| – | – | – | binds | C33B1484 (antibody, V domains shown, also called sCD33B1484) VH: EVQLVESGGGLVQPGGSLKVSCEASGFTFSVFAIHWVRQASGKGLEWIGRIRSKGNSYATAYDVSVKGRFTISRDDSKNTAYLQMDSLKTEDTAVYYCTRHNDKWNYYGLDVWGQGTTVTVSS VL: DIVMTQSPLSLPVTPGEPASISCKSSQSLLFSNGYKFLDWYLQRPGQSPQLLIYLGSYRASGVPDRFSGSGSGTDFTLKISRVEAEDVGLYYCMQALQTPPTFGQGTKVEIK | – |

Source: patent US20230365684A1 (Janssen / Centocor, published 2023)
